Laboratory results as given in patent US11827699 (dated 2023).
Like-named read-outs stand apart in the source and are kept apart here.

T1: human FcγRIIa R131 (human, UniProt P12318)
T1 chain: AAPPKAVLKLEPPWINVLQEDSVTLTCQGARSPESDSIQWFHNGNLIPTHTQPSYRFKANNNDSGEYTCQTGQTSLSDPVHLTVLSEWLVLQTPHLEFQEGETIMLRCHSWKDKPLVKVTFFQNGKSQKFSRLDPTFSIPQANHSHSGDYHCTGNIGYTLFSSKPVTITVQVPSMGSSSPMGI

T2: human FcγRIIb (human, UniProt P31994)
T2 chain: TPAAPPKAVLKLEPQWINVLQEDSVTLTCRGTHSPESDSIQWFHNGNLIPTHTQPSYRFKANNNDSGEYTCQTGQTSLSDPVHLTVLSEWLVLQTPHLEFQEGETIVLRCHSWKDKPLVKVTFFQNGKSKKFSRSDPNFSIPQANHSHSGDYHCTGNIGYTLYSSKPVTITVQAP

T3: human FcγRIa (human, UniProt P12314)
T3 chain: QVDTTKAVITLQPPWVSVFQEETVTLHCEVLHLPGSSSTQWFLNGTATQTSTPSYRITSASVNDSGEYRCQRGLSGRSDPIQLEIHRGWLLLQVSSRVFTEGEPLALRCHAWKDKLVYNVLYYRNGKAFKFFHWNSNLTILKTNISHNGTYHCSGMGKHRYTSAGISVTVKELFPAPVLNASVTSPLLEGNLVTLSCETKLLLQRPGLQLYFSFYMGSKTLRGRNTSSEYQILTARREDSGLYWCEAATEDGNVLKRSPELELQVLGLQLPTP


Legend:
Assay in all cases: SPR
human FcγRIIa R131 [1] = target: T1, human FcγRIIa R131
human FcγRIIb [2] = target: T2, human FcγRIIb
human FcγRIIa R131 [3] = target: T1, human FcγRIIa R131
human FcγRIIb [4] = target: T2, human FcγRIIb
human FcγRIa = target: T3, human FcγRIa

Binder | Kd (human FcγRIIa R131 [1]) | Kd (human FcγRIIb [2]) | Kd (human FcγRIIa R131 [3]) | Kd (human FcγRIIb [4]) | Kd (human FcγRIa)
IL6R-BP474 (antibody) chain 1: QVQLQESGPGLVKPSETLSLTCAVSGHSISHDHAWSWVRQPPGEGLEWIGFISYSGITNYNPSLQGRVTISRDNSKNTLYLQMNSLRAEDTAVYYCARSLARTTAMDYWGEGTLVTVSSASTKGPSVFPLAPSSKSTSGGTAALGCLVKDYFPEPVTVSWNSGALTSGVHTFPAVLQSSGLYSLSSVVTVPSSSLGTQTYICNVNHKPSNTKVDKKVEPKSCDKTHTCPPCPAPDLLGDDSVFLFPPKPKDTLMISRTPEVTCVVVDVSDEDGEVKFNWYVDGVEVHNAKTKPREEQDNSTYRVVSVLTVLHQDWLNGKEYKCKVSNKALPSSIEKTISKAKGQPREPQVYTLPPSRDELTKNQVSLTCLVKGFYPSDIAVEWESNGQPENNYKTTPPVLDSDGSFFLYSKLTVDKSRWQQGNVFSCSVMHEALHNHYTQESLSLSP chain 2: not shown | 3000 nM | – | – | – | –
IL6R-BP239 (antibody) chain 1: QVQLQESGPGLVKPSETLSLTCAVSGHSISHDHAWSWVRQPPGEGLEWIGFISYSGITNYNPSLQGRVTISRDNSKNTLYLQMNSLRAEDTAVYYCARSLARTTAMDYWGEGTLVTVSSASTKGPSVFPLAPSSKSTSGGTAALGCLVKDYFPEPVTVSWNSGALTSGVHTFPAVLQSSGLYSLSSVVTVPSSSLGTQTYICNVNHKPSNTKVDKKVEPKSCDKTHTCPPCPAPDYLGDDSVFLFPPKPKDTLMISRTPEVTCVVVDVQDEDGEVKFNWYVDGVEVHNAKTKPREEQDNSTYRVVSVLTVLHQDWLNGKEYKCKVSNAALPRPIEKTISKAKGQPREPQVYTLPPSRDELTKNQVSLTCLVKGFYPSDIAVEWESNGQPENNYKTTPPVLDSDGSFFLYSKLTVDKSRWQQGNVFSCSVMHEALHNHYTQESLSLSP chain 2: not shown | – | 60 nM | – | – | –
IL6R-BP151 (antibody) chain 1: QVQLQESGPGLVKPSETLSLTCAVSGHSISHDHAWSWVRQPPGEGLEWIGFISYSGITNYNPSLQGRVTISRDNSKNTLYLQMNSLRAEDTAVYYCARSLARTTAMDYWGEGTLVTVSSASTKGPSVFPLAPSSKSTSGGTAALGCLVKDYFPEPVTVSWNSGALTSGVHTFPAVLQSSGLYSLSSVVTVPSSSLGTQTYICNVNHKPSNTKVDKKVEPKSCDKTHTCPPCPAPDYLGDDSVFLFPPKPKDTLMISRTPEVTCVVVDVSHEDPEVKFNWYVDGVEVHNAKTKPREEQYNSTYRVVSVLTVLHQDWLNGKEYKCKVSNAALPKPIEKTISKAKGQPREPQVYTLPPSRDELTKNQVSLTCLVKGFYPSDIAVEWESNGQPENNYKTTPPVLDSDGSFFLYSKLTVDKSRWQQGNVFSCSVMHEALHNHYTQESLSLSP chain 2: not shown | – | – | 670 nM | 40 nM | 84 nM
IL6R-BP237 (antibody) chain 1: QVQLQESGPGLVKPSETLSLTCAVSGHSISHDHAWSWVRQPPGEGLEWIGFISYSGITNYNPSLQGRVTISRDNSKNTLYLQMNSLRAEDTAVYYCARSLARTTAMDYWGEGTLVTVSSASTKGPSVFPLAPSSKSTSGGTAALGCLVKDYFPEPVTVSWNSGALTSGVHTFPAVLQSSGLYSLSSVVTVPSSSLGTQTYICNVNHKPSNTKVDKKVEPKSCDKTHTCPPCPAPDYLGDDSVFLFPPKPKDTLMISRTPEVTCVVVDVQDEDGEVKFNWYVDGVEVHNAKTKPREEQDNSTYRVVSVLTVLHQDWLNGKEYKCKVSNAALPKPIEKTISKAKGQPREPQVYTLPPSRDELTKNQVSLTCLVKGFYPSDIAVEWESNGQPENNYKTTPPVLDSDGSFFLYSKLTVDKSRWQQGNVFSCSVMHEALHNHYTQESLSLSP chain 2: not shown | – | 100 nM | – | – | –
IL6R-BP471 (antibody) chain 1: QVQLQESGPGLVKPSETLSLTCAVSGHSISHDHAWSWVRQPPGEGLEWIGFISYSGITNYNPSLQGRVTISRDNSKNTLYLQMNSLRAEDTAVYYCARSLARTTAMDYWGEGTLVTVSSASTKGPSVFPLAPSSKSTSGGTAALGCLVKDYFPEPVTVSWNSGALTSGVHTFPAVLQSSGLYSLSSVVTVPSSSLGTQTYICNVNHKPSNTKVDKKVEPKSCDKTHTCPPCPAPDLLGDDSVFLFPPKPKDTLMISRTPEVTCVVVDVSDEDGEVKFNWYVDGVEVHNAKTKPREEQDNSTYRVVSVLTVLHQDWLNGKEYKCKVSNKALPRSIEKTISKAKGQPREPQVYTLPPSRDELTKNQVSLTCLVKGFYPSDIAVEWESNGQPENNYKTTPPVLDSDGSFFLYSKLTVDKSRWQQGNVFSCSVMHEALHNHYTQESLSLSP chain 2: not shown | 800 nM | – | – | – | –
IL6R-BP475 (antibody) chain 1: QVQLQESGPGLVKPSETLSLTCAVSGHSISHDHAWSWVRQPPGEGLEWIGFISYSGITNYNPSLQGRVTISRDNSKNTLYLQMNSLRAEDTAVYYCARSLARTTAMDYWGEGTLVTVSSASTKGPSVFPLAPSSKSTSGGTAALGCLVKDYFPEPVTVSWNSGALTSGVHTFPAVLQSSGLYSLSSVVTVPSSSLGTQTYICNVNHKPSNTKVDKKVEPKSCDKTHTCPPCPAPDLLGDDSVFLFPPKPKDTLMISRTPEVTCVVVDVSDEDGEVKFNWYVDGVEVHNAKTKPREEQDNSTYRVVSVLTVLHQDWLNGKEYKCKVSNKGLPSPIEKTISKAKGQPREPQVYTLPPSRDELTKNQVSLTCLVKGFYPSDIAVEWESNGQPENNYKTTPPVLDSDGSFFLYSKLTVDKSRWQQGNVFSCSVMHEALHNHYTQESLSLSP chain 2: not shown | 1000 nM | – | – | – | –
IL6R-BP150 (antibody) chain 1: QVQLQESGPGLVKPSETLSLTCAVSGHSISHDHAWSWVRQPPGEGLEWIGFISYSGITNYNPSLQGRVTISRDNSKNTLYLQMNSLRAEDTAVYYCARSLARTTAMDYWGEGTLVTVSSASTKGPSVFPLAPSSKSTSGGTAALGCLVKDYFPEPVTVSWNSGALTSGVHTFPAVLQSSGLYSLSSVVTVPSSSLGTQTYICNVNHKPSNTKVDKKVEPKSCDKTHTCPPCPAPEYLGDDSVFLFPPKPKDTLMISRTPEVTCVVVDVSHEDPEVKFNWYVDGVEVHNAKTKPREEQYNSTYRVVSVLTVLHQDWLNGKEYKCKVSNAALPKPIEKTISKAKGQPREPQVYTLPPSRDELTKNQVSLTCLVKGFYPSDIAVEWESNGQPENNYKTTPPVLDSDGSFFLYSKLTVDKSRWQQGNVFSCSVMHEALHNHYTQESLSLSP chain 2: not shown | – | – | 550 nM | 31 nM | 320 nM
IL6R-BP228 (antibody) chain 1: QVQLQESGPGLVKPSETLSLTCAVSGHSISHDHAWSWVRQPPGEGLEWIGFISYSGITNYNPSLQGRVTISRDNSKNTLYLQMNSLRAEDTAVYYCARSLARTTAMDYWGEGTLVTVSSASTKGPSVFPLAPSSKSTSGGTAALGCLVKDYFPEPVTVSWNSGALTSGVHTFPAVLQSSGLYSLSSVVTVPSSSLGTQTYICNVNHKPSNTKVDKKVEPKSCDKTHTCPPCPAPEYLGDDSVFLFPPKPKDTLMISRTPEVTCVVVDVQDEDGEVKFNWYVDGVEVHNAKTKPREEQYNSTYRVVSVLTVLHQDWLNGKEYKCKVSNDALPRPIEKTISKAKGQPREPQVYTLPPSRDELTKNQVSLTCLVKGFYPSDIAVEWESNGQPENNYKTTPPVLDSDGSFFLYSKLTVDKSRWQQGNVFSCSVMHEALHNHYTQESLSLSP chain 2: not shown | – | 40 nM | – | – | –
IL6R-BP152 (antibody) chain 1: QVQLQESGPGLVKPSETLSLTCAVSGHSISHDHAWSWVRQPPGEGLEWIGFISYSGITNYNPSLQGRVTISRDNSKNTLYLQMNSLRAEDTAVYYCARSLARTTAMDYWGEGTLVTVSSASTKGPSVFPLAPSSKSTSGGTAALGCLVKDYFPEPVTVSWNSGALTSGVHTFPAVLQSSGLYSLSSVVTVPSSSLGTQTYICNVNHKPSNTKVDKKVEPKSCDKTHTCPPCPAPDYLGDDSVFLFPPKPKDTLMISRTPEVTCVVVDVSHEDPEVKFNWYVDGVEVHNAKTKPREEQDNSTYRVVSVLTVLHQDWLNGKEYKCKVSNAALPKPIEKTISKAKGQPREPQVYTLPPSRDELTKNQVSLTCLVKGFYPSDIAVEWESNGQPENNYKTTPPVLDSDGSFFLYSKLTVDKSRWQQGNVFSCSVMHEALHNHYTQESLSLSP chain 2: not shown | – | – | 810 nM | 41 nM | 73 nM
